This is an account of results in PMC9779223, “Impact of Troponin in Cardiomyopathy Development Caused by Mutations in Tropomyosin” (International Journal of Molecular Sciences, 2022).

This assay deals with T1, Tropomyosin C-terminal fragment Tpm WT 134–284 (human, UniProt P09493 134-284).
T1 construct: also called Tpm C-end; source: E. coli C41 (DE3), purified (anion exchange, HiTrap Q HP)
Put plainly: ITC; MicroCal PEAQ-ITC, 25 °C; 30 mM HEPES-Na pH 7.3, 100 mM NaCl, 1 mM DTT; sample in the cell 30 to 60 µM, ligand in the syringe 200 to 700 µM; one set of binding sites. The note with it: both partners purified.

T1 sequence (P09493 134-284): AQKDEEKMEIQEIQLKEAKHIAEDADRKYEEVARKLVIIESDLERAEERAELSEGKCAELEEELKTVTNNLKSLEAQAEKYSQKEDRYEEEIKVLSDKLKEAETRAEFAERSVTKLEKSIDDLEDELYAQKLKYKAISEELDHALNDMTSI

B1: Tropomyosin N-terminal fragment Tpm WT 1–133 (domain or fragment)
chain: not shown
notes: human tropomyosin Tpm1.1 (alpha-Tpm), residues 1-133 (ends at the trypsin site Arg133); Made from the full Tpm1.1 construct by primers that put a stop after Arg133; also called Tpm_(1–133); Tpm N-end; source: E. coli C41 (DE3), purified (anion exchange, HiTrap Q HP)
In the case of B1, the Kd turned out to be 10.2 ± 0.3 µM, the dH was 1.95 ± 0.15 kcal/mol and the “stoichiometry N” value is 1.17 ± 0.05.
